Laboratory results taken from the nanobody polyreactivity screen of Harvey et al. (2022).

Assay: yeast display, Sf9 membrane polyspecificity reagent, FACS + sequencing; frameworks hold sequencing errors
How it was run: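 Galactose-induced (36–48 hours) yeast carrying a synthetic nanobody display library were exposed to 10% biotinylated, detergent-solubilized Sf9 membrane reagent at 4 °C for 1 hour. FACS followed streptavidin microbead enrichment, using low and high (top ~1%) gates for expression (anti-HA) and reagent binding (streptavidin). Colony PCR, MiSeq 2 × 250 sequencing and CDR-length filtering followed. Labels for polyreactivity reflect the gate of origin.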

| Sequence | polyreactivity (PSR sort gate) |
| --- | --- |
| QVQLVESGGGLVQAGGSLRLSCAASGRTFNYNAMGWYRQAPGTERELVAAINYNGGSTYYADSVKGRFTISRDNAKNTVYLQMNSLKPEDTAVYYCAADQSTVLDVGSWGQGTQVTVSS | low polyreactivity |
| QVQLVESGGGLVQAGGSLRLSCAASGRTFNYYAMGWYRQAPGKERELVAAISSGGSTDYADSVKGRFTISRDNAKNTVYLQMNSMKPEDTAVYYCNAESYPGWAYFAYDYQFDYWGQGTQVTVSS | low polyreactivity |
| QVQLVESGGGLVQAGGSLRLSCAASGRTFNYYVMGWFRQAPGKERELVATINWSGGSTYYADSVKGRFTISRDNAKNTVYLQMNSLKPEDTAVYYCAARWFYHRNHNRNYWGQGTQVTVSS | high polyreactivity |
| QVQLVESGGGLVQAGGSLRLSCAASGRTFPANTMGWYRPAPGKERELVAAISSRGGSTYYADSVKGRFTISRDNAKKTVYLQMNSLKPEDTAVYYCNAYLYFPRYDYWGQGTQVTVSS | high polyreactivity |
| QVQLVESGGGLVQAGGSLRLSCAASGRTFPAYAMGWYRQAPGKERELVARISYSGGNTYYADSVKGRFTISRDNAKNTVYLQMNSLKPEDTAVYYCAATRSHYPYRSGGDYWGQGTQVTVSS | low polyreactivity |
| QVQLVESGGGLVQAGGSLRLSCAASGRTFPFYAMGWYRQAPGKERELVASISRSTGRTYYADSVKGRFTISRDNAKNTVYLQMNSLKPEDTAVYYCAKSGGSSQYWYGYWGQGTQVTVSS | high polyreactivity |
| QVQLVESGGGLVQAGGSLRLSCAASGRTFPFYAMGWYRQAPVKEREFVAAITASGDSTYYADSVKGRFTISRDNAKYTVYLQMNSLKPEDTAVYYCAADLPVWYVTRYDYWGQGTQVTVSS | low polyreactivity |
| QVQLVESGGGLVQAGGSLRLSCAASGRTFPGNAMGGDKQAPGKERELVASINGRTTRTYYADSVKGRFTISRDNAKNTVYLQMTSLKPEDTAVYYCAADPPGYVYGKRYYWGQGTQVTVSS | high polyreactivity |
| QVQLVESGGGLVQAGGSLRLSCAASGRTFPGNAMGWYRQAPGKERELVAAINSGGSTYYADSVKGRFTISRDNAKNTVYLQMNSLKPEDTAVYYSAAYFGHYWRYYYWGQGTQVNVSS | high polyreactivity |
| QVQLVESGGGLVQAGGSLRLSCAASGRTFPGYAMGWYRQAPGKARELVAGISYRGGSTYYADSVKGRFTISRDNAKNTVYLQLNSLKPEDTAVYYCARDYSRHKGDYWGQGTQVTVSS | low polyreactivity |
| QVQLVESGGGLVQAGGSLRLSCAASGRTFPGYAMGWYRQAPGKERELVAAITSSGDDTYYADSVKGRFTISRDNAKNTVYLQMNSLKPEDTAVYYCRLFRRSADSSYDYEYWGQGTQVTVSS | low polyreactivity |
| QVQLVESGGGLVQAGGSLRLSCAASGRTFPGYAMGWYRQAPGKERELVATITLSDGSTYYADSVKGRFTISRDNAKTTVYLQMNSLKPEDTAVYYCNARRSYFLRYGVNYWGQGTQVTVSS | low polyreactivity |
| QVQLVESGGGLVQAGGSLRLSCAASGRTFPGYAMGWYRQAPGKERELVAVISWSGGRTNYADSVKGRFTISRDNAKNTVYLQMNSLKPEDTAVYYCAARYHGHSNDYWGQGTQVTVSS | low polyreactivity |
| QVQLVESGGGLVQAGGSLRLSCAASGRTFPGYGMGWYRQAPGKERELVAVITSNGGITYYADSVKWRFTISRDIAKYTVYLVMNRLIAEDTAVYFCAAYEIYYEFVCWGQGSQVTVSS | low polyreactivity |
| QVQLVESGGGLVQAGGSLRLSCAASGRTFPPYGMGWYRQAPGKERELVAAISKSSGSTNYADSVKGRFTISRDNAKNTVYLQMNSLKPEDTAVYYCNVDLYRWSKLAGAYRMDYWGQGTQVTVSS | low polyreactivity |
| QVQLVESGGGLVQAGGSLRLSCAASGRTFPRYAMGWYRQAPGKERELVAAISRGGGTTYADSVKGRFTISRDNAKNTVYLQMNSLKPEDTAVYYCATRSPYSYPNLYYWGQGTQVTVSS | high polyreactivity |
| QVQLVESGGGLVQAGGSLRLSCAASGRTFPSNAMGWYRQAPGKEREFVASITYSGGRTYYADSVKGRFTISRDNAKNTVYLQVNSLKPEDTAVYYCAAYPQFWYLDYNYWGQGTQVTVSS | high polyreactivity |
| QVQLVESGGGLVQAGGSLRLSCAASGRTFPSYAMGWYRQAPGKERELVAAITTSGGSTYYADSVKGRFTISRDNAKNTVYLQMNSLKPEDTAVYYCAAAKPYSGSQYYYWGQGTQVTVSS | high polyreactivity |
| QVQLVESGGGLVQAGGSLRLSCAASGRTFPSYVMGWYRQAPGKERELVAAITATGASTYYADSVKGRFTISRDNAKNTVYLQMNSQKPEDTAVYYCAASRYGLYENGYEYYWGQVTQVTVSS | low polyreactivity |
| QVQLVESGGGLVQAGGSLRLSCAASGRTFPVNAMGWYRQAPGKEREFVAVISSTGTTYYADSVKGRFTISLDNAKITVYLQMNSLKPEDTAVYYCARRSNRRAYVNRVGVLRTVDYWGQGTQVTVSS | low polyreactivity |
| QVQLVESGGGLVQAGGSLRLSCAASGRTFPWYGKGWYRPAPGKERELVAAISRTGGNTYYADSVKGRFTISRDNAKNTVYLQMNSLKPEDTAVYYCNAGYYSNRYYFYDYGYWGQGTQVTVSS | high polyreactivity |
| QVQLVESGGGLVQAGGSLRLSCAASGRTFPYNAMGRYRQAPGKERELVAAISGRGGSTYYADSVKGRFTISRDNAKNTVYLQMNSLKPEDTAVYYCAVYTIYGFYYWGQGTQVTVSS | high polyreactivity |

| Sequence | polyreactivity (PSR sort gate) |
| --- | --- |
| QVQLVESGGGLVQAGGSLRLSCAASGRTFPYNAMGWYRQAPGKEMELVAVISSSGGSTYYADSVKGRFTISRDNAKNTVYLQMNSLKPEDTAVYYCNTRPYYYRRPGYRYSGYDYWGQGTQVTVSS | high polyreactivity |
| QVQLVESGGGLVQAGGSLRLSCAASGRTFPYYAMGWYRQAPGKERELVAAISSSGGSTYYADSVKGRFTISRDNAKYTVYLQMNSLKPEDTAVYYCAAVYQFIKWGDRYEYWGQGTQVTVSS | high polyreactivity |
| QVQLVESGGGLVQAGGSLRLSCAASGRTFPYYAMGWYRQAPGKERELVAAITSGGSTYYADSVKGRFTISRDNAKNTVYLQMNSLKPEDTAVYYCNALLGYYRWRRPVDYSYGSWGQGTQVTVSS | high polyreactivity |
| QVQLVESGGGLVQAGGSLRLSCAASGRTFPYYAMGWYRQATGKERELVARIRSDGSTNYADSVKGRFTISRDNANNTVYLQMNSLKPEDTAVYYCAGKPYPSLFFHYGYWGQCTQVTVSS | low polyreactivity |
| QVQLVESGGGLVQAGGSLRLSCAASGRTFPYYTMGWYREAPGKERELVAAIDGSGDNTYYADSVKGRFTISRDNAKNTLYLHMNSLKPEHTAVYYCTADTGLGTRDFEKRDYWGQGTQVTVSS | low polyreactivity |
| QVQLVESGGGLVQAGGSLRLSCAASGRTFPYYTMGWYRQAPGKERELVAAIDGSGDNTYYADSVKGRFTISRDYAKNTVYLQMNSLKPEDTAVYYCTAEQWGSLDYWGQGTQVTVSA | low polyreactivity |
| QVQLVESGGGLVQAGGSLRLSCAASGRTFPYYTMGWYRQAPGKERELVAAITSGGSTHYADSVKGRFTISRDNAKNTVYLQMNSLKPEDTAVYYCAADLFYHSYGYEYWGQGTQVTVSS | low polyreactivity |
| QVQLVESGGGLVQAGGSLRLSCAASGRTFPYYVMGWYRQAPGKERELVAAINSGGRTNYADSVKGRFTISRDNAKNTVYLQMNSLKPEETAVYYCTKRGHPARLGYYYWGQGTQVTGSS | low polyreactivity |
| QVQLVESGGGLVQAGGSLRLSCAASGRTFQDNAMVWYRQAPGKEREFVAAINNSGGNTYYADSVKGRFTISRDNAKNTVYLQMNSLKPEDTAVYYCNARHTWHQTYDYWGQGTQVTVSS | low polyreactivity |
| QVQLVESGGGLVQAGGSLRLSCAASGRTFQFYTMGWYRQAPGKERELVAVITVSSAATFYADTVKGRFTISRDNAKNTVSLQMNSLKPEDTAVYYCAAGLVLIVGMDSWGQGTQVTVSS | low polyreactivity |
| QVQLVESGGGLVQAGGSLRLSCAASGRTFQINAMGWYRQAPGKERELVAAITWSGGSTYYADSVKGRFTISRDNAKNTVYLQMNSLKPEDTAVYYCNKRYRAYATLNLIAGYNYWGQGTQVTVSS | low polyreactivity |
| QVQLVESGGGLVQAGGSLRLSCAASGRTFQNYAMGWYRQAPGKERELVADITSGGSTYADSVKGRFTISRDNAKNTVYLQMNSLKPEDTAVYYCNADRTYPEPAEYYYWGQGTQVTVSS | low polyreactivity |
| QVQLVESGGGLVQAGGSLRLSCAASGRTFQPYAMGWYRQAPGKERELVASISRSGGRTYYADSVKGRFTISRDNAKNTVYLQMNSLKPEDTAVYYCAADIPYTRSIKYYYWGQGTQVTVSS | high polyreactivity |
| QVQLVESGGGLVQAGGSLRLSCAASGRTFQRYAMGWYRQAPGKERELVAAISRGGITYYADSVKGRFTISRDNAKNTVYLQMNSLKPEDTAVYYCAALYRYYHESSPFDYWGQGTQVTVSS | high polyreactivity |
| QVQLVESGGGLVQAGGSLRLSCAASGRTFQRYAMVWYRQAPGKERELVPAITSRGGSTYYSDSVKGRFTISRDNAKNTVYLQMNSLKPEDTAVYYCNARSRRTLSEPQSEMDYWGQGTQVTVSS | high polyreactivity |
| QVQLVESGGGLVQAGGSLRLSCAASGRTFQWYTMGWYRQAPGKERELVAAISLSGTSTYYADSVKGRFTISRDNAKNTVYLQMNSLNPEDTAVYYCAAEDIGRYYRLDYWGQGTQVTVSS | low polyreactivity |
| QVQLVESGGGLVQAGGSLRLSCAASGRTFQYNAMGWYRQAPGKEREFVAGITSIGGRTYYADSVKGRFTISRDNAKNTVYLQMNSLKPEETAVYYCAAVRGLAVGYDYWGQGTQVTVSS | high polyreactivity |
| QVQLVESGGGLVQAGGSLRLSCAASGRTFQYYAMGWYRQAPGKERELVAAISSGGSTYYADSVKGRFTISRDNAKNTVYLQMNSLKPEDTAVYYCTARWGYRRGYWGQGTQVTVSS | high polyreactivity |
| QVQLVESGGGLVQAGGSLRLSCAASGRTFQYYAVGWYRQAPGKERELVAAITSGGSTYYADSVKGRFTISRDNAKNTVYLQMNSLKPEDTAVYYCAAKRNVQLGYTVQSLYDYWGLGTQVTVSS | low polyreactivity |
| QVQLVESGGGLVQAGGSLRLSCAASGRTFRAYAMGWYRQAPGKERELVAAITASGTSTYYADSVKGRFTISRDNAKNTVYLQMNSLKPEDTAVYYCARGSWRHFRLYGFDYWGQGTQVTVSS | low polyreactivity |
| QVQLVESGGGLVQAGGSLRLSCAASGRTFRENAMGWYRQAPGKERELVAAISWRAGSTYYADSVKGRFTISRDNAKNTVYLQMNSLKPEDTAVYYCAAKYTVSFYLWGTFNYWGQGTQVTVSS | high polyreactivity |
